The labels stand for the following.
B1: His6-SUMO-tagged SH3 to PDZ domains of Shank2 (R520-D727), WT [not stated (human or rat cDNA cloned)] / synthetic peptide of the complete PDZ ligand of GKAP (last 15 amino acids of GKAP/SAPAP1) [not stated] (parent complex)
chain 1: RKLYSAVPGRLFVAVKPYQPQVDGEIPLHRGDRVKVLSIGEGGFWEGSARGHIGWFPAECVEEVQCKPRDSQAETRADRSKKLFRHYTVGSYDSFDTSSDCIIEEKTVVLQKKDNEGFGFVLRGAKADTPIEEFTPTPAFPALQYLESVDEGGVAWQAGLRTGDFLIEVNNENVVKVGHRQVVNMIRQGGNHLVLKVVTVTRNLDPDD
chain 2: ADSIEIYIPEAQTRL

A word on the Kd: it is a measure of binding affinity in units of concentration.

The variants in the first experiment derive from B1. In words: ITC; parent: 319 nM.
Regarding chain 1 V198F, the Kd turned out to be 848 nM.

As for chain 1 N171S, the Kd is 411 nM. As for chain 1 S91Y, the equilibrium dissociation constant (Kd) came out at 910 nM.

The variants in another experiment derive from B1. In words: ITC; parent: 320 nM. For orientation: ITC needs no label: the signal is the heat of the interaction.
For the variant chain 1 G124R, the dissociation constant Kd was 22500 nM.

The variants in the next experiment derive from B1. The experiment can be described thus: ITC; parent: 319 nM. The source holds these as a separate data set.
On to chain 1 G124R, for which the Kd worked out at 22000 nM.

The record behind these values is publication PMC11371640, “Structural deficits in key domains of Shank2 lead to alterations in postsynaptic nanoclusters and to a neurodevelopmental disorder in humans” (Molecular Psychiatry, 2022).
